In patent US20160258933A1 (Dana-Farber, published 2016):
Each block holds one binder with its values, some of them ahead of it. Ends that are not written are not given here. * marks the point of attachment. FITC = O=C1OC2(c3ccc(O)cc3Oc3cc(O)ccc32)c2ccc(NC(=S)*)cc21; Ahx = NCCCCCC(=O)O

Experiments:
[1] = biological target: T1, GST-BCL-w (human, UniProt Q92843 1-164, limits assumed); test: fluorescence polarization, FITC peptide with GST-BCL-w
T1 construct: Bacterially expressed GST fusion; not shown: GST tag
T1 sequence (looked up): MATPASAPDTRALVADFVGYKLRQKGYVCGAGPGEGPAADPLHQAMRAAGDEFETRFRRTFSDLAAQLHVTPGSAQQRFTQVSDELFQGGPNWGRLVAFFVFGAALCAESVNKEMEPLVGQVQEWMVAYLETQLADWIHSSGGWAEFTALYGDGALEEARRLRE
Experimental: (§1) Binding assays were performed using fluorescence polarization as previously described (Letai et al., 2002). A minimum of three independent experiments were used to determine each dissociation constant.
(§2) To determine selectivity in interactions among antiapoptotic BCL-2 family members and BH3 domains of BH3-only proteins, fluorescence polarization binding assays (FPA) were used. Antiapoptotic proteins BCL-2, BCL-XL, MCL-1, BCL-w, and BFL-1 were purified from transfected bacteria as GST fusion proteins. Oligopeptides used for FPA were tagged with an N-terminal FITC moiety.

[2] = biological target: T2, GST-BCL-XL (human, UniProt Q07817 1-212, limits assumed); test: fluorescence polarization, FITC peptide with GST-BCL-XL
T2 construct: Bacterially expressed GST fusion; not shown: GST tag
T2 sequence (Q07817 1-212 limits assumed): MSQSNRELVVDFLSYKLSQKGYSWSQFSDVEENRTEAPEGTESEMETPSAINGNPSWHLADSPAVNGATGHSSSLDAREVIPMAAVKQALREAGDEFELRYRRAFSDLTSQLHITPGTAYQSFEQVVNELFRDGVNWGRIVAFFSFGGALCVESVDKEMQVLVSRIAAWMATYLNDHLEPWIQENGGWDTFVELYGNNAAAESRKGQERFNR
Experimental: as §1, §2

[3] = biological target: T3, GST-BCL-2 (human, UniProt P10415 1-218, limits assumed); test: fluorescence polarization, FITC peptide with GST-BCL-2
T3 construct: Bacterially expressed GST fusion; not shown: GST tag
T3 sequence (P10415 1-218 limits assumed): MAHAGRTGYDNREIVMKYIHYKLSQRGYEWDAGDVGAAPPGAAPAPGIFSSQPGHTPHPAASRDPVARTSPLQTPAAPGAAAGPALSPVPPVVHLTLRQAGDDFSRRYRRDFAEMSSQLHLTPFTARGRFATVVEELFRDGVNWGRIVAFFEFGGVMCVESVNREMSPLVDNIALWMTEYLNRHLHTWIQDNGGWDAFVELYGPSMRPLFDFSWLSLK
Experimental: as §1, §2

[4] = biological target: T4, GST-BFL-1 (human, UniProt Q16548 1-153, limits assumed); test: fluorescence polarization, FITC peptide with GST-BFL-1
T4 construct: Bacterially expressed GST fusion; not shown: GST tag
T4 sequence (looked up): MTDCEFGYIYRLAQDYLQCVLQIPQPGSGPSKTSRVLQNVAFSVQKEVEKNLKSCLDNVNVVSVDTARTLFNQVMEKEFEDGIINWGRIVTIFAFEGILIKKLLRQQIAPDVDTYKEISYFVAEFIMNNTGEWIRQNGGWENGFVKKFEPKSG
Experimental: as §1, §2

[5] = biological target: T5, GST-MCL-1 (human, UniProt Q07820 1-327, limits assumed); test: fluorescence polarization displacement of fluorescein BIM BH3 from 0.1 uM GST-MCL-1
T5 construct: not shown: GST tag
T5 sequence (Q07820 1-327 limits assumed): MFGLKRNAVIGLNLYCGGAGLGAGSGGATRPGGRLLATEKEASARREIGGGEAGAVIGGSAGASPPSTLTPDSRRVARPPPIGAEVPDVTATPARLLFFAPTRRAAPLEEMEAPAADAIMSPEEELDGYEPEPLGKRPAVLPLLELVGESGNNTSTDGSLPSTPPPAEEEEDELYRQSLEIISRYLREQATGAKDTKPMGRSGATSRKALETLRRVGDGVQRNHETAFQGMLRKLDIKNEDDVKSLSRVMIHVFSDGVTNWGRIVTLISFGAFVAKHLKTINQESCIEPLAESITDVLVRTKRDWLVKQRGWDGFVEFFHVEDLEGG
Experimental: as §1

[6] = biological target: T3, GST-BCL-2; test: fluorescence polarization (Table 2b) as retold
[7] = biological target: T3, GST-BCL-2; test: fluorescence polarization displacement of fluorescein BIM BH3 from 0.5 uM GST-BCL-2
Experimental: as §1

binding result [1]: no binding | binding result [2]: no binding | binding result [3]: no binding | binding result [4]: no binding
Binder: {FITC-Ahx}-PADLKDECAQLRRIGDKVNL [NOXA B BH3 peptide, N-terminal fluorescein tagged]

binding result [5]: no binding
B1: BAD BH3 peptide (no tag stated) (peptide)
peptide: LWAAQRYGRELRRMSDEFEGSFKGL
notes: Peptide as titrated in the displacement assay and used on mitochondria and cells

fold lower affinity than BAD BH3 [6]: ~10 fold | fold lower affinity than BAD, PUMA or BMF BH3 [6]: ~10 fold
Binder: {FITC-Ahx}-MEGSDALALRLACIGDEMDV [BIK BH3 peptide, N-terminal fluorescein tagged]

binding result [7]: no binding
B2: NOXA A BH3 peptide (no tag stated) (peptide)
peptide: AELPPEFAAQLRKIGDKVYC
notes: as for B1

binding result [1]: no binding | binding result [2]: no binding | binding result [3]: no binding | binding result [4]: no binding
Binder: {FITC-Ahx}-AELPPEFAAQLRKIGDKVYC [NOXA A BH3 peptide, N-terminal fluorescein tagged]
